Tests used:
Peptide_004 [1] = molecular target: T1, Peptide_004 (human); experiment: peptide microarray
T1 construct: 15-mer on microarray; not native form, recombinant insert region
T1 peptide: AADVHSQHHHHHHHH
Method: (§1) 5, 1, 0.2, 0.04, 0.008 and 0.0016 μg/mL serial dilutions were incubated on a single multi-well microarray slide at 30° C. for 1 hour. The slide includes 21 individual mini-arrays (one mini-array per sample dilution).
(§2) DyLight 650 was used as a label. False-positive binding to a peptide was evaluated by performing one additional control incubation in which only a secondary antibody was applied on the same microarray slide. Before performing each step, the microarrays were washed with a washing buffer.
(§3) MMC2 is the same as the average value of all three cases on a microarray except when the coefficient of variation (CV), which is the standard deviation divided by the average value, is larger than 0.5. In this case, the average of the two closest values (MC2) is assigned to MMC2. The thick black line in the heatmap indicates the culture of a control only using a secondary anti-mouse IgG antibody. The culture of individual antibody samples is indicated by a thin blue line. […] However, since Peptide_004 and Peptide_005 are not native forms, these peptides were excluded from an epitope candidate group.

Peptide_005 [2] = molecular target: T2, Peptide_005 (human); experiment: peptide microarray
T2 construct: 15-mer on microarray; not native form, recombinant insert region
T2 peptide: ADVHSQHHHHHHHHV
Method: as §1, §2, §3

Peptide_004 [3] = molecular target: T1, Peptide_004; experiment: peptide microarray, 0.2 ug/mL
Method: as §1, §2

Peptide_005 [4] = molecular target: T2, Peptide_005; experiment: peptide microarray, 0.2 ug/mL
Method: as §1, §2

Peptide_012 [5] = molecular target: T3, Peptide_012 (human); experiment: peptide microarray
T3 construct: 15-mer on microarray; not native form, includes recombinant insert region
T3 peptide: HHHHHHHVKQIESKT
Method: as §1, §2, §3

Peptide_018 [6] = molecular target: T4, Peptide_018 (human); experiment: peptide microarray
T4 construct: 15-mer on microarray; not native form, includes recombinant insert region; also called HVKQIESKTAFQEAL
T4 peptide: HVKQIESKTAFQEAL
Method: as §1, §2, §3

Peptide_012 [7] = molecular target: T3, Peptide_012; experiment: peptide microarray, 0.2 ug/mL
Method: as §1, §2

Peptide_013 = molecular target: T5, Peptide_013 (human); experiment: peptide microarray, 0.2 ug/mL
T5 construct: 15-mer on microarray; not native form, includes recombinant insert region
T5 peptide: HHHHHHVKQIESKTA
Method: as §1, §2

Peptide_014 = molecular target: T6, Peptide_014 (human); experiment: peptide microarray, 0.2 ug/mL
T6 construct: 15-mer on microarray; not native form, includes recombinant insert region
T6 peptide: HHHHHVKQIESKTAF
Method: as §1, §2

Peptide_015 = molecular target: T7, Peptide_015 (human); experiment: peptide microarray, 0.2 ug/mL
T7 construct: 15-mer on microarray; not native form, includes recombinant insert region
T7 peptide: HHHHVKQIESKTAFQ
Method: as §1, §2

Peptide_018 [8] = molecular target: T4, Peptide_018; experiment: peptide microarray, 0.2 ug/mL
Method: as §1, §2

Peptide_019 = molecular target: T8, Peptide_019 (human); experiment: peptide microarray, 0.2 ug/mL
T8 construct: 15-mer of hTrx1 on microarray
T8 peptide: VKQIESKTAFQEALD
Method: as §1, §2

Peptide_020 = molecular target: T9, Peptide_020 (human); experiment: peptide microarray, 0.2 ug/mL
T9 construct: 15-mer of hTrx1 on microarray
T9 peptide: KQIESKTAFQEALDA
Method: as §1, §2

Peptide_021 = molecular target: T10, Peptide_021 (human); experiment: peptide microarray, 0.2 ug/mL
T10 construct: 15-mer of hTrx1 on microarray
T10 peptide: QIESKTAFQEALDAA
Method: as §1, §2

Peptide_022 = molecular target: T11, Peptide_022 (human); experiment: peptide microarray, 0.2 ug/mL
T11 construct: 15-mer of hTrx1 on microarray
T11 peptide: IESKTAFQEALDAAG
Method: as §1, §2

Peptide_023 = molecular target: T12, Peptide_023 (human); experiment: peptide microarray, 0.2 ug/mL
T12 construct: 15-mer of hTrx1 on microarray
T12 peptide: ESKTAFQEALDAAGD
Method: as §1, §2

Peptide_024 = molecular target: T13, Peptide_024 (human); experiment: peptide microarray, 0.2 ug/mL
T13 construct: 15-mer of hTrx1 on microarray
T13 peptide: SKTAFQEALDAAGDK
Method: as §1, §2

Peptide_025 = molecular target: T14, Peptide_025 (human); experiment: peptide microarray, 0.2 ug/mL
T14 construct: 15-mer of hTrx1 on microarray
T14 peptide: KTAFQEALDAAGDKL
Method: as §1, §2

Peptide_045 = molecular target: T15, Peptide_045 (human); experiment: peptide microarray, 0.2 ug/mL
T15 construct: 15-mer of hTrx1 on microarray
T15 peptide: SATWCGPCKMIKPFF
Method: as §1, §2

Peptide_051 = molecular target: T16, Peptide_051 (human); experiment: peptide microarray, 0.2 ug/mL
T16 construct: 15-mer of hTrx1 on microarray
T16 peptide: PCKMIKPFFHSLSEK
Method: as §1, §2

Peptide_084 = molecular target: T17, Peptide_084 (human); experiment: peptide microarray, 0.2 ug/mL
T17 construct: 15-mer of hTrx1 on microarray
T17 peptide: SECEVKCMPTFQFFK
Method: as §1, §2

Peptide_085 = molecular target: T18, Peptide_085 (human); experiment: peptide microarray, 0.2 ug/mL
T18 construct: 15-mer of hTrx1 on microarray
T18 peptide: ECEVKCMPTFQFFKK
Method: as §1, §2

Peptide_086 = molecular target: T19, Peptide_086 (human); experiment: peptide microarray, 0.2 ug/mL
T19 construct: 15-mer of hTrx1 on microarray
T19 peptide: CEVKCMPTFQFFKKG
Method: as §1, §2

Peptide_092 = molecular target: T20, Peptide_092 (human); experiment: peptide microarray, 0.2 ug/mL
T20 construct: 15-mer of hTrx1 on microarray
T20 peptide: PTFQFFKKGQKVGEF
Method: as §1, §2

Peptide_093 = molecular target: T21, Peptide_093 (human); experiment: peptide microarray, 0.2 ug/mL
T21 construct: 15-mer of hTrx1 on microarray
T21 peptide: TFQFFKKGQKVGEFS
Method: as §1, §2

Peptide_094 = molecular target: T22, Peptide_094 (human); experiment: peptide microarray, 0.2 ug/mL
T22 construct: 15-mer of hTrx1 on microarray
T22 peptide: FQFFKKGQKVGEFSG
Method: as §1, §2

Peptide_095 = molecular target: T23, Peptide_095 (human); experiment: peptide microarray, 0.2 ug/mL
T23 construct: 15-mer of hTrx1 on microarray
T23 peptide: QFFKKGQKVGEFSGA
Method: as §1, §2

Peptide_042 = molecular target: T24, Peptide_042; experiment: peptide microarray, anti-mouse IgG DyLight 650, MMC2 heatmap (Example 17)
T24 peptide: VDFSATWCGPCKMIK
Method: as §1, §2
(§4) To visualize the obtained results and compare binding regions across individual cultures, as shown in FIGS. 21A to 21D, heatmap diagrams were calculated. In FIGS. 21A to 21D, the fluorescence intensity is expressed in a color-coded manner, white indicates no binding, and red indicates strong binding. For all evaluations, the MMC2-value of the average pixel fluorescence for each peptide was calculated.

Peptide_061 = molecular target: T25, Peptide_061; experiment: as above
T25 peptide: SLSEKYSNVIFLEVD
Method: as §1, §2, §4

Peptide_077 = molecular target: T26, Peptide_077; experiment: as above
T26 peptide: DDCQDVASECEVKCM
Method: as §1, §2, §4

Peptide_078 = molecular target: T27, Peptide_078; experiment: as above
T27 peptide: DCQDVASECEVKCMP
Method: as §1, §2, §4

Peptide_001 = molecular target: T28, Peptide_001; experiment: as above
T28 peptide: VATAADVHSQHHHHH
Method: as §1, §2, §4

Peptide_089 = molecular target: T29, Peptide_089; experiment: as above
T29 peptide: KCMPTFQFFKKGQKV
Method: as §1, §2, §4

B1: monoclonal antibody B266-1 (antibody, human IgG1)
light: QIVLTQSPAIMSASPGEKVTMTCSASSRISYMYWYQQKPGTSPKRWIYDTSKLASGVPARFSGSGSGTSYSLTISTMEAEDAATYYCHQRSSYPTFGAGTKLELKSVAAPSVFIFPPSDEQLKSGTASVVCLLNNFYPREAKVQWKVDNALQSGNSQESVTEQDSKDSTYSLSSTLTLSKADYEKHKVYACEVTHQGLSSPVTKSFNRGEC
heavy: not shown
notes: B266 with the Fc part changed to human IgG1; also called B266-1 (Trx1-hIgG1); B266-1 (hTrx1-hIgG1)
Peptide_004 [1]
  signal, fold of the average background level: ~8 fold
Peptide_005 [2]
  signal, fold of the average background level: ~8 fold
Peptide_004 [3]
  signal (blank-control = 1): 1.41
Peptide_005 [4]
  signal (blank-control = 1): 1.78

B2: monoclonal antibody B264 (antibody, mouse IgG1, kappa, V domains shown)
VH: QVQLQQSGAELARPGASVKMSCKASGYTFTSYTMHWVKQRPGQGLEWIGYINPTSDYTNYNQKFKDKATLTADKSSSTAYMQLSSLTSEDSAVYFCASEGGFLYYFDYWGQGTTLTVSS
VL: DVLMTQTPLSLPVSLGDQASISCRSSQSIVHSNGNTYLEWYLQKPGQSPKLLIYKVSNRFSGVPDRFSGSGSGTDFTLKISRVEAEDLGVYYCFQGSHVPYTFGGGTKLEIKR
notes: also called AB264; B264 (Trx1-mIgG1)
Peptide_012 [5]
  signal, fold of the average background level: ~7 fold
Peptide_018 [6]
  signal, fold of the average background level: ~7 fold
Peptide_012 [7]
  signal (blank-control = 1): 1.72
Peptide_013
  signal (blank-control = 1): 1.85
Peptide_014
  signal (blank-control = 1): 3.16
Peptide_015
  signal (blank-control = 1): 2.5
Peptide_018 [8]
  signal (blank-control = 1): 3.49
Peptide_019
  signal (blank-control = 1): 1.48
Peptide_020
  signal (blank-control = 1): 1.84
Peptide_021
  signal (blank-control = 1): 2.08
Peptide_022
  signal (blank-control = 1): 4.2
Peptide_023
  signal (blank-control = 1): 1.12
Peptide_024
  signal (blank-control = 1): 4
Peptide_025
  signal (blank-control = 1): 4.9
Peptide_045
  signal (blank-control = 1): 4.58
Peptide_051
  signal (blank-control = 1): 2.32
Peptide_084
  signal (blank-control = 1): 2.36
Peptide_085
  signal (blank-control = 1): 2.23
Peptide_086
  signal (blank-control = 1): 1.16
Peptide_092
  signal (blank-control = 1): 6.81
Peptide_093
  signal (blank-control = 1): 3.72
Peptide_094
  signal (blank-control = 1): 2.11
Peptide_095
  signal (blank-control = 1): 2.13
Peptide_042
  binding result: no binding (tested: 5 ug/mL)
Peptide_061
  binding result: no binding (tested: 5 ug/mL)
Peptide_077
  binding result: no binding (tested: 5 ug/mL)
Peptide_078
  binding result: no binding (tested: 5 ug/mL)
Peptide_001
  binding result: no binding (tested: 5 ug/mL)
Peptide_089
  binding result: no binding (tested: 5 ug/mL)

Source: patent publication US20240192215A1 (E AND S HEALTHCARE, published 2024)
